These are literature values, as cited in paper PMC3792554.

This data set has as its target IL-18 (Homo sapiens) (UniProt Q14116).

IL-18 (Homo sapiens), sequence (Q14116 37-193): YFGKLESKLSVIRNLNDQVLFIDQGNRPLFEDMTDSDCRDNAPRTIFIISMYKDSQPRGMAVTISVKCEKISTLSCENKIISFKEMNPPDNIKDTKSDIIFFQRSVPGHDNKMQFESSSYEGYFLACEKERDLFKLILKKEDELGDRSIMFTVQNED
IL-18BP, sequence (O95998 31-194): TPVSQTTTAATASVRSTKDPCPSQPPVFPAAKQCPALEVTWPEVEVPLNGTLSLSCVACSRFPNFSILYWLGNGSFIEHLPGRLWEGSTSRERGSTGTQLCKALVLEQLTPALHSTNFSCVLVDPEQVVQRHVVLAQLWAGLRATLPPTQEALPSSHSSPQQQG

As usually defined, the Kd is a measure of binding affinity in units of concentration. As to IL-18BP (from UniProt O95998), the Kd was 0.4 nM.
